These are literature values, as cited in publication PMC4298871.

This data set addresses M6P/IGF-IIR (Homo sapiens) (UniProt P11717). Description: SPR. Background: In SPR one partner is held on a chip, and binding of the other changes the refractive index at the surface.
UniProt P11717, sequence (P11717 41-2491): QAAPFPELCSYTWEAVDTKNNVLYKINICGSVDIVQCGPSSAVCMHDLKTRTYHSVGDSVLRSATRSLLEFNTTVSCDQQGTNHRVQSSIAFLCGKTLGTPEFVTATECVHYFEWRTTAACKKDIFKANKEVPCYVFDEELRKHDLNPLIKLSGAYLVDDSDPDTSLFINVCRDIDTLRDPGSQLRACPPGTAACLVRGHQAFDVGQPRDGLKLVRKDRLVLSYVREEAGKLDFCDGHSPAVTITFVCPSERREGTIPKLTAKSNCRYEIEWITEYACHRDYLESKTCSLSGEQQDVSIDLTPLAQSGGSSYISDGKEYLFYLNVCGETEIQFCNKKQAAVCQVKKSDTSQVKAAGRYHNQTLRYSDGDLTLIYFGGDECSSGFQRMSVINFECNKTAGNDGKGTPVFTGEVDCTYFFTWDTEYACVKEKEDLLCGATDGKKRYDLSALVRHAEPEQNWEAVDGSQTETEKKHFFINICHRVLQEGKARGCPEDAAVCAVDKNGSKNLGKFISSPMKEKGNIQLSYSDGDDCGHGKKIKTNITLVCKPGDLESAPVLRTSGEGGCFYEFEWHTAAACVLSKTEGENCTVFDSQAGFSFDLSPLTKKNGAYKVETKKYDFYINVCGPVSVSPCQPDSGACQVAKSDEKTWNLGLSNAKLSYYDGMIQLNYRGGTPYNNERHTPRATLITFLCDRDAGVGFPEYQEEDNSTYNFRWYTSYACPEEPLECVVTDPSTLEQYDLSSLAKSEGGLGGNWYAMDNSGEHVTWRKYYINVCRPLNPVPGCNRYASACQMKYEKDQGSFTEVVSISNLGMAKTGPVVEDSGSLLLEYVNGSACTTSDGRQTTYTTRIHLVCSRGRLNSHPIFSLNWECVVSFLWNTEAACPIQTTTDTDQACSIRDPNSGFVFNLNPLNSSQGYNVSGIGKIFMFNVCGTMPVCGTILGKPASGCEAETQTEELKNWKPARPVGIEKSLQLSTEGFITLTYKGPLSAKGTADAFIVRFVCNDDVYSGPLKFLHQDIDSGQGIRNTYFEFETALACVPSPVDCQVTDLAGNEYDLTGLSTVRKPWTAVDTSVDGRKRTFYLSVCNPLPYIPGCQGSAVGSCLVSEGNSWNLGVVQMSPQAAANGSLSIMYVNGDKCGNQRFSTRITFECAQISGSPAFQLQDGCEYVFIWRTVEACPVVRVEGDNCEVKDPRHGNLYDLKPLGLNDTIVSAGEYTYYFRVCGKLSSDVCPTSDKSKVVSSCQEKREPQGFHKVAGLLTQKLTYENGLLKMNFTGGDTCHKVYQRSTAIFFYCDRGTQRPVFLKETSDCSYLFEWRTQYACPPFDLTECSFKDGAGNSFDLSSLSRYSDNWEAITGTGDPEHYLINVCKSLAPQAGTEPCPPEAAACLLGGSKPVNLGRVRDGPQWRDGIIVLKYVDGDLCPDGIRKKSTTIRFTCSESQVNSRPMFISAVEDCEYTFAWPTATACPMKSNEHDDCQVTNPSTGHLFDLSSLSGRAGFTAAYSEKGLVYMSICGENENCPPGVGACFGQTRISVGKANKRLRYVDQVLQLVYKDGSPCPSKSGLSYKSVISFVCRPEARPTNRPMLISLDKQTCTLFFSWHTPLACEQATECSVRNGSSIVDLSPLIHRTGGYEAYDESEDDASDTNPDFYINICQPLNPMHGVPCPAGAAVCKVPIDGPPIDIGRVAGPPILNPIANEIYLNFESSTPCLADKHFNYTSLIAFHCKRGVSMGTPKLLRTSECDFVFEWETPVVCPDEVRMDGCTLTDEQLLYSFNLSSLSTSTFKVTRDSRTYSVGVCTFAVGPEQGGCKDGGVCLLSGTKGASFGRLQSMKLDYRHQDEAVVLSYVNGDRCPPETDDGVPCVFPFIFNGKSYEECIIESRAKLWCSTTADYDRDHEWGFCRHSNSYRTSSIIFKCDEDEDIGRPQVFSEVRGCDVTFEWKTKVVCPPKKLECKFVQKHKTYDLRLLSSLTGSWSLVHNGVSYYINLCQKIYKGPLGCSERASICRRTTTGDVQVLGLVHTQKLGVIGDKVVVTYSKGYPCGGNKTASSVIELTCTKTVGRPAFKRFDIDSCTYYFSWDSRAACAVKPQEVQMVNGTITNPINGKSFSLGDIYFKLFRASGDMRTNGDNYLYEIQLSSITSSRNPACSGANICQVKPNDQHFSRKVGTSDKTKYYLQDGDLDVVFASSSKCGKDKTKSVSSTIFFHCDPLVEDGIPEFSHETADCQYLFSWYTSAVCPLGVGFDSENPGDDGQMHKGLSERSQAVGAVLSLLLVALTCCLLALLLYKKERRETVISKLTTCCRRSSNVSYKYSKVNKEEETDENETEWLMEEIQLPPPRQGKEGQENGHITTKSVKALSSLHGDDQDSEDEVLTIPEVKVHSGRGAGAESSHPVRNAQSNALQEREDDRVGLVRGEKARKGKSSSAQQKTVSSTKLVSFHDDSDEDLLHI

Turning to DPP-4 (from UniProt P27487), the Kd was 35.9 µM.

One may read the Kd as the free concentration of one partner at which half of the binding sites on the other are occupied at equilibrium, for simple one-to-one binding.
